Data on four molecules can be found in paper PMC4941208 (Journal of the American Chemical Society, 2015).

No end group written: not given here. *: point of attachment. GlcN = OC[C@H]1OC(O)[C@H](N*)[C@@H](O)[C@@H]1O; Acetyl(2-naphthyl) = O=C(Cc1ccc2ccccc2c1)*

Data set [1] can be described thus: TEM of hydrogel and solutions. Type of data set: physicochemical. Particulars: solution at 16.6 mM.
Another data set deals with hydrogel of P-1. Put plainly: Gel-sol transition and rheology. Type of data set: physicochemical. Conditions: 7 days.
A further data set deals with proteinase K (Parengyodontium album, UniProt P06873). Type of data set: in vitro ADME. Particulars: 37 °C, 24 h.
The data set “hydrogelation + TEM” deals with the molecule itself. Put plainly: hydrogelation + TEM.
Data set [2] deals with T1, P-1 (Nap-FF-LGFNI, heptapeptide derivative).
T1 sequence (peptide, 2-(naphthalen-2-yl)acetic group (Nap) on the N-terminus): FFLGFNI
Put plainly: ITC. (In ITC the heat of successive injections is recorded.)

Chain of proteinase K (P06873 106-384): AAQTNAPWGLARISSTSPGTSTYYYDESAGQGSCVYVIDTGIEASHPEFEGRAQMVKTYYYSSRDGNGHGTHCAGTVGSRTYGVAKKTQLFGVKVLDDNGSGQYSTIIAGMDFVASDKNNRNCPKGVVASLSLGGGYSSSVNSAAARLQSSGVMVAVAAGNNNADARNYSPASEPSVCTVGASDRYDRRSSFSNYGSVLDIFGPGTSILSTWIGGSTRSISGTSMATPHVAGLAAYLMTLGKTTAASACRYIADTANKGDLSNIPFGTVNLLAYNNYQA

Consider “GP-2: Glycoconjugate of nucleobase, peptide, saccharide: thymine at N-terminal and glucosamine at C-terminal of TTPV (thymine-TTPV-GlcN)”, for which, in data set [1], the “nanostructures in TEM images of the solution” value is on record as “hardly any ordered nanostructures”. Further, in the data set on hydrogel of P-1 (4 equiv of compound), the “G' times smaller than that of hydrogel of P-1” value is given as “about 300 times”. Besides, the “Max G' of P-1 after addition of 4 equiv of compound” value in the data set on hydrogel of P-1 (hydrogel of P-1 622 μM, pH 6.4, 300 μL + 50 μL 15 mM compound (4:1)) came to 0.06 Pa. The “Hydrogelator P-1 remaining in mixture with 1 equiv of compound” value with proteinase K (hydrogel of P-1 + compound 1:1, proteinase K 3.2 U/mL) is 45.0 ± 0.4%. Besides, the “Hydrogelator P-1 remaining in mixture with 4 equiv of compound” value with proteinase K (hydrogel of P-1 + compound 4:1, proteinase K 3.2 U/mL) came out at 24.2 ± 2.0%.

B1: P-1 (Nap-FF-LGFNI, heptapeptide derivative) (peptide)
peptide: {Acetyl(2-naphthyl)}-FFLGFNI
In the case of B1, the binding result in “hydrogelation + TEM” is given as “binds”.

B2: GP-2 (thymine-TTPV-glucosamine, conjugate of nucleobase, peptide and saccharide) (peptide)
peptide: thymine-TTPV-GlcN
As for B2, in data set [2], the Kd (as a rule, the free concentration of one partner at which half of the binding sites on the other are occupied at equilibrium, for simple one-to-one binding) was determined as 262 µM; the dH was -4.11 kcal/mol; the stoichiometry N (commonly a count of units in the complex or per binding partner) stood at 1.04.

B3: P-3 (thymine-TTPV, non-glycosylated control of GP-2) (peptide)
peptide: thymine-TTPV
As to B3, in data set [2], the Kd is 235 µM, the dH is -3.13 kcal/mol and the stoichiometry N came out at 1.38.
